Measured values as given in PMC4103484, “Functional effects of polymorphisms on glucocorticoid receptor modulation of human anxiogenic substance-P gene promoter activity in primary amygdala neurones”.

Legend:
[1] = target: T1, glucocorticoid receptor alpha (GRα) (human) (UniProt P04150); assay: EMSA; details: reference; EMSA: 20 fmol biotin probe with 2.0 uM GRα or 10 ug nuclear extract; buffer as Hay et al. 2005 with EDTA replaced by 50 uM ZnSO4; competitor 100x; 6% native …
T1 sequence: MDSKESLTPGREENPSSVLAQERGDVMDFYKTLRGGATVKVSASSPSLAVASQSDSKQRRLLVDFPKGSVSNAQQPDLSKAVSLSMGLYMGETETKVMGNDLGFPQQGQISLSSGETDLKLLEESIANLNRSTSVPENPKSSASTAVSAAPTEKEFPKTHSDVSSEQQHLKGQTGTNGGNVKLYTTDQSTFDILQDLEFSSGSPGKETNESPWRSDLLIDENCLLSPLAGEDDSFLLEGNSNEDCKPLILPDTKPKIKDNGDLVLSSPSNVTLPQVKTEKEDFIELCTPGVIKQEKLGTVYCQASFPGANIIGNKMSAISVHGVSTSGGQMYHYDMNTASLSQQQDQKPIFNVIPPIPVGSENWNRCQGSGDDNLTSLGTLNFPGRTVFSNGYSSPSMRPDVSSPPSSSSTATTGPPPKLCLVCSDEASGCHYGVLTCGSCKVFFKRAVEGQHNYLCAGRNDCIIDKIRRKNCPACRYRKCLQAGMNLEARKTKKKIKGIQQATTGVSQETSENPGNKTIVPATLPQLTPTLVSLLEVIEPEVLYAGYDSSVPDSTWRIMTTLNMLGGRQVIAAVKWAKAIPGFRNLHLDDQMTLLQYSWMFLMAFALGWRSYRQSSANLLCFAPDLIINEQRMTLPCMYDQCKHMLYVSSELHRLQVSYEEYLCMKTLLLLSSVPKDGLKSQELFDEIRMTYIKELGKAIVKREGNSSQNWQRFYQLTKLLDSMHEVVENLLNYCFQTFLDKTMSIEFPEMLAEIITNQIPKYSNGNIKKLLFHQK

[2] = target: T2, glucocorticoid receptor alpha (GRα) (human, UniProt P04150 1-777); assay: competition; 100x unlabelled, vs 2GR probe; EMSA: 20 fmol biotin probe with 2.0 uM GRα or 10 ug nuclear extract; buffer as Hay et al. 2005 with EDTA replaced by 50 uM ZnSO4; competitor 100x; 6% native gel, 0.5x TBE pH 8.3; binding salt, pH and temperature not stated; details: protein: recombinant; chain copies: 2; blunt
[3] = target: T2, glucocorticoid receptor alpha (GRα); assay: EMSA; EMSA: 20 fmol biotin probe with 2.0 uM GRα or 10 ug nuclear extract; buffer as Hay et al. 2005 with EDTA replaced by 50 uM ZnSO4; competitor 100x; 6% native gel, 0.5x TBE pH 8.3; binding salt, pH and temperature not stated; details: protein: recombinant; chain copies: 2; blunt

Molecule: GAAGCAAAAAACGTCCTGTTCAACCCCTGCTCCTG (double strand) [SNP-G (SNPGR-G)]
- binding signal [1]: 100 % of SNP-G

B1: RO (random oligonucleotide) (dsDNA)
DNA 1: CGAGCACCCTTCACCCTCCAGGCTTAACGG
DNA 2: CCGTTAAGCCTGGAGGGTGAAGGGTGCTCG
- binding result [2]: no binding

B2: GRE-cons (dsDNA)
DNA 1: TAAGTTTATGGTTACAAACTGTTCTTAAAACGAGG
DNA 2: CCTCGTTTTAAGAACAGTTTGTAACCATAAACTTA
- binding result [3]: binds
